Residue numbers refer to the chain shown, from its start. In names and notes the source's numbering stands.
B1: AdcR H42A/H108A (site 1 metal ligand mutant) (natural protein)
chain: MGTLEKKLDNLVNTILLKAENQHELLFGACQSDVKLTNTQEAILMLLSQQRLTNTDLAKALNISQAAVTKAIKSLVKQDMLAGTKDTVDARVTYFELTELAKPIASEATHHHDETLNVYNRLLQKFSAKELEIVDKFVTVFAEELEG
B2: AdcR C30A (site 2 metal ligand mutant) (natural protein)
chain: B1 chain with C30A, A42H, A108H

Target: the molecule itself
Experiment: SEC

Protein	stoichiometry N
B1	2
B2	2

From PMC5514391 (EBioMedicine, 2017)
